Target: cynomolgus monkey GPRC5D (cynomolgus monkey)
Assay: cell-based or functional assay

B1: talquetamab (bispecific antibody, human IgG4 S228P, lambda, F234A L235A)
heavy 1: not shown
light 1: DIQMTQSPSSLSASVGDRVTITCKASQNVATHVGWYQQKPGKAPKRLIYSASYRYSGVPSRFSGSGSGTEFTLTISNLQPEDFATYYCQQYNRYPYTFGQGTKLEIKKAAPSVTLFPPSSEELQANKATLVCLISDFYPGAVTVAWKGDSSPVKAGVETTTPSKQSNNKYAASSYLSLTPEQWKSHRSYSCQVTHEGSTVEKTVAPTECS
heavy 2: EVQLVESGGGLVQPGGSLRLSCAASGFTFNTYAMNWVRQAPGKGLEWVARIRSKYNNYATYYAASVKGRFTISRDDSKNSLYLQMNSLKTEDTAVYYCARHGNFGNSYVSWFAYWGQGTLVTVSSASTKGPSVFPLAPCSRSTSESTAALGCLVKDYFPEPVTVSWNSGALTSGVHTFPAVLQSSGLYSLSSVVTVPSSSLGTKTYTCNVDHKPSNTKVDKRVESKYGPPCPPCPAPEAAGGPSVFLFPPKPKDTLMISRTPEVTCVVVDVSQEDPEVQFNWYVDGVEVHNAKTKPREEQFNSTYRVVSVLTVLHQDWLNGKEYKCKVSNKGLPSSIEKTISKAKGQPREPQVYTLPPSQEEMTKNQVSLTCLVKGFYPSDIAVEWESNGQPENNYKTTPPVLDSDGSFLLYSKLTVDKSRWQEGNVFSCSVMHEALHNHYTQKSLSLSLGK
light 2: QTVVTQEPSLTVSPGGTVTLTCRSSTGAVTTSNYANWVQQKPGQAPRGLIGGTNKRAPGTPARFSGSLLGGKAALTLSGVQPEDEAEYYCALWYSNLWVFGGGTKLTVLGQPKAAPSVTLFPPSSEELQANKATLVCLISDFYPGAVTVAWKADSSPVKAGVETTTPSKQSNNKYAASSYLSLTPEQWKSHRSYSCQVTHEGSTVEKTVAPTECS
  in vivo pharmacological activity, cynomolgus monkey against human: ~100 fold lower

Source: US20220177584A1 (Janssen / Centocor, published 2022)
